Starred links: 1 amine or outer side, 2 acyl side, 3 side chain; linkers in the order of their positions; H or OH if unused. Non-standard residues stand in square brackets, D forms with d. No end group written: not given here. *: point of attachment. sY = N[C@@H](Cc1ccc(OS(=O)(=O)O)cc1)C(=O)O; C18 diacid = O=C(O)CCCCCCCCCCCCCCCCC(=O)*; γGlu = O=C(O)[C@H](CCC(=O)[*:2])N[*:1]; NMeF = CN[C@@H](Cc1ccccc1)C(=O)O; dNMeD = CN[C@H](CC(=O)O)C(=O)O; Nle = CCCC[C@H](N)C(=O)O; AEEA = NCCOCCOCC(=O)O
T1: human cholecystokinin-1 receptor (human), P32238
T1 chain: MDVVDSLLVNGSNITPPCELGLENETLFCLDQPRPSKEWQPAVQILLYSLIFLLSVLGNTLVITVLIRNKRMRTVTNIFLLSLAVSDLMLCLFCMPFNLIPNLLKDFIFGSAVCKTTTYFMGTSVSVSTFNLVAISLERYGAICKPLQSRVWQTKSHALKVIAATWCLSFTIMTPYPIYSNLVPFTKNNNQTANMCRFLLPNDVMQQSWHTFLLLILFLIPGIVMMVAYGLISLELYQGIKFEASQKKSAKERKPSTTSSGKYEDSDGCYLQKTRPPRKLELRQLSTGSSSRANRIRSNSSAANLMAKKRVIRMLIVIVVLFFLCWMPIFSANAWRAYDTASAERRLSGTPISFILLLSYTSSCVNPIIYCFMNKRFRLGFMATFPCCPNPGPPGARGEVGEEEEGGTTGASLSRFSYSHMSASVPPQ

T2: human cholecystokinin-2 receptor (human), P32239
T2 chain: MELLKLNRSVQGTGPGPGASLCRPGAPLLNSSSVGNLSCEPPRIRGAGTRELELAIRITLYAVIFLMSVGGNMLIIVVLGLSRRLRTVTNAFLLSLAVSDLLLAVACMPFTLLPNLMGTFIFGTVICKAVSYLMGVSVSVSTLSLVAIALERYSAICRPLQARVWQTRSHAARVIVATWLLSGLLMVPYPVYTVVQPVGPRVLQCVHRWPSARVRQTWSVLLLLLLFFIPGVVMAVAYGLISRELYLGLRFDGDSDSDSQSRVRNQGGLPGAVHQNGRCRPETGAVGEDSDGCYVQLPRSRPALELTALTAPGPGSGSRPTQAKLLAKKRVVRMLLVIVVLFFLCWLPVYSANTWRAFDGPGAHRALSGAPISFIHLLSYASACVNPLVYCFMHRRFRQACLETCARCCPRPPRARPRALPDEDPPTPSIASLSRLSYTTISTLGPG

T3: human cholecystokinin-2 receptor (human, UniProt P32239 1-447)
T3 sequence (looked up): T2 chain

T4: human cholecystokinin-1 receptor (human, UniProt P32238 1-428)
T4 construct: whole, on cells; also called CCK-1R; CCK-1 receptor
T4 sequence (looked up): T1 chain

B1: 2-[2-[2-[[2-[2-[2-[[(4S)-4-Carboxy-4-(17-carboxyheptadecanoylamino)butanoyl]amino]ethoxy]ethoxy]acetyl]amino]ethoxy]ethoxy]acetyl-sTyr-Nle-Gly-Trp-Nle-DMeAsp-Me … (peptide)
peptide: {C18 diacid-γGlu-AEEA-AEEA}-[sY][Nle]GW[Nle][dNMeD][NMeF]-NH2
SMILES: CCCC[C@H](NC(=O)[C@H](Cc1ccc(OS(=O)(=O)O)cc1)NC(=O)COCCOCCNC(=O)COCCOCCNC(=O)CC[C@H](NC(=O)CCCCCCCCCCCCCCCCC(=O)O)C(=O)O)C(=O)NCC(=O)N[C@@H](Cc1c[nH]c2ccccc12)C(=O)N[C@@H](CCCC)C(=O)N(C)[C@H](CC(=O)O)C(=O)N(C)[C@@H](Cc1ccccc1)C(N)=O
notes: X = Nle or Nal
B2: 2-[2-[2-[[2-[2-[2-[[(4S)-4-Carboxy-4-(17-carboxyheptadecanoylamino)butanoyl]amino]ethoxy]ethoxy]acetyl]amino]ethoxy]ethoxy]acetyl-Asp-sTyr-Nle-Gly-Trp-Nle-DMeAs … (peptide)
peptide: {C18 diacid-γGlu-AEEA-AEEA}-D[sY][Nle]GW[Nle][dNMeD]W-NH2
SMILES: CCCC[C@H](NC(=O)[C@H](Cc1ccc(OS(=O)(=O)O)cc1)NC(=O)[C@H](CC(=O)O)NC(=O)COCCOCCNC(=O)COCCOCCNC(=O)CC[C@H](NC(=O)CCCCCCCCCCCCCCCCC(=O)O)C(=O)O)C(=O)NCC(=O)N[C@@H](Cc1c[nH]c2ccccc12)C(=O)N[C@@H](CCCC)C(=O)N(C)[C@H](CC(=O)O)C(=O)N[C@@H](Cc1c[nH]c2ccccc12)C(N)=O
notes: X = Nle or Nal
B3: 2-[2-[2-[[2-[2-[2-[[(4S)-4-Carboxy-4-(17-carboxyheptadecanoylamino)butanoyl]amino]ethoxy]ethoxy]acetyl]amino]ethoxy]ethoxy]acetyl-Asp-sTyr-Ala-Gly-Trp-Nle-DMeAs … (peptide)
peptide: {C18 diacid-γGlu-AEEA-AEEA}-D[sY]AGW[Nle][dNMeD][NMeF]-NH2
SMILES: CCCC[C@H](NC(=O)[C@H](Cc1c[nH]c2ccccc12)NC(=O)CNC(=O)[C@H](C)NC(=O)[C@H](Cc1ccc(OS(=O)(=O)O)cc1)NC(=O)[C@H](CC(=O)O)NC(=O)COCCOCCNC(=O)COCCOCCNC(=O)CC[C@H](NC(=O)CCCCCCCCCCCCCCCCC(=O)O)C(=O)O)C(=O)N(C)[C@H](CC(=O)O)C(=O)N(C)[C@@H](Cc1ccccc1)C(N)=O
notes: X = Nle or Nal
B4: 2-[2-[2-[[2-[2-[2-[[(4S)-4-Carboxy-4-(17-carboxyheptadecanoylamino)butanoyl]amino]ethoxy]ethoxy]acetyl]amino]ethoxy]ethoxy]acetyl-Asp-sTyr-Ser-Gly-Trp-Nle-DMeAs … (peptide)
peptide: {C18 diacid-γGlu-AEEA-AEEA}-D[sY]SGW[Nle][dNMeD][NMeF]-NH2
SMILES: CCCC[C@H](NC(=O)[C@H](Cc1c[nH]c2ccccc12)NC(=O)CNC(=O)[C@H](CO)NC(=O)[C@H](Cc1ccc(OS(=O)(=O)O)cc1)NC(=O)[C@H](CC(=O)O)NC(=O)COCCOCCNC(=O)COCCOCCNC(=O)CC[C@H](NC(=O)CCCCCCCCCCCCCCCCC(=O)O)C(=O)O)C(=O)N(C)[C@H](CC(=O)O)C(=O)N(C)[C@@H](Cc1ccccc1)C(N)=O
notes: X = Nle or Nal
B5: Asp-sTyr-Ser-Gly-Trp-Nle-DMeAsp-MePhe-amide (peptide)
peptide: D[sY]SGW[Nle][dNMeD][NMeF]-NH2
modifications: N-terminus assumed
SMILES: CCCC[C@H](NC(=O)[C@H](Cc1c[nH]c2ccccc12)NC(=O)CNC(=O)[C@H](CO)NC(=O)[C@H](Cc1ccc(OS(=O)(=O)O)cc1)NC(=O)[C@@H](N)CC(=O)O)C(=O)N(C)[C@H](CC(=O)O)C(=O)N(C)[C@@H](Cc1ccccc1)C(N)=O
notes: X = Nle or Nal
B6: 2-[2-[2-[[2-[2-[2-[[(4S)-4-Carboxy-4-(17-carboxyheptadecanoylamino)butanoyl]amino]ethoxy]ethoxy]acetyl]amino]ethoxy]ethoxy]acetyl-Asp-sTyr-Phe-Gly-Trp-Nle-DMeAs … (peptide)
peptide: {C18 diacid-γGlu-AEEA-AEEA}-D[sY]FGW[Nle][dNMeD][NMeF]-NH2
SMILES: CCCC[C@H](NC(=O)[C@H](Cc1c[nH]c2ccccc12)NC(=O)CNC(=O)[C@H](Cc1ccccc1)NC(=O)[C@H](Cc1ccc(OS(=O)(=O)O)cc1)NC(=O)[C@H](CC(=O)O)NC(=O)COCCOCCNC(=O)COCCOCCNC(=O)CC[C@H](NC(=O)CCCCCCCCCCCCCCCCC(=O)O)C(=O)O)C(=O)N(C)[C@H](CC(=O)O)C(=O)N(C)[C@@H](Cc1ccccc1)C(N)=O
notes: X = Nle or Nal

What was measured:
[1] = molecular target: T1, human cholecystokinin-1 receptor …; assay: SPA competition vs [125I]-CCK-8s, membranes
[2] = molecular target: T1, human cholecystokinin-1 receptor …; assay: cell-based or functional assay
[3] = molecular target: T2, human cholecystokinin-2 receptor …; assay: cell-based or functional assay
[4] = molecular target: T3, human cholecystokinin-2 receptor; assay: cell-based or functional assay
[5] = molecular target: T3, human cholecystokinin-2 receptor; assay: SPA competition vs [125I]-CCK-8s, membranes
[6] = molecular target: T4, human cholecystokinin-1 receptor; assay: SPA competition vs [125I]-CCK-8s, membranes
[7] = molecular target: T4, human cholecystokinin-1 receptor; assay: cell-based or functional assay

| Binder | IC50 [1] [nM] | EC50 (CCK-1R) [2] [nM] | EC50 (CCK-2R) [3] [nM] | EC50 (CCK-2R) [4] [nM] | IC50 [5] [nM] | IC50 [6] [nM] | EC50 (CCK-1R) [7] [nM] |
| --- | --- | --- | --- | --- | --- | --- | --- |
| D[sY]LGWQ[DMeAsp][NMeF]-NH2 [Asp-sTyr-Leu-Gly-Trp-Gln-DMeAsp-MePhe-amide] | 0.075 | 0.15 | > 1000 |  |  |  |  |
| D[sY]LGWL[DMeAsp][NMeF]-NH2 [Asp-sTyr-Leu-Gly-Trp-Leu-DMeAsp-MePhe-amide] | 0.042 | 0.25 |  | > 1000 |  |  |  |
| D[sY]LGWP[DMeAsp][NMeF]-NH2 [Asp-sTyr-Leu-Gly-Trp-Pro-DMeAsp-MePhe-amide] | 0.11 | 0.34 |  | > 1000 |  |  |  |
| {C18 diacid-γGlu-AEEA-AEEA}-D[sY]LGWQ[DMeAsp][NMeF]-NH2 | 0.084 | 0.17 | > 1000 |  |  |  |  |
| B1 |  |  |  | 440 | 6500 | 0.039 | 0.37 |
| {C18 diacid-γGlu-AEEA-AEEA}-D[sY]LGWA[DMeAsp][NMeF]-NH2 | 0.65 | 0.17 | 880 |  |  |  |  |
| D[sY]LGWV[DMeAsp][NMeF]-NH2 [Asp-sTyr-Leu-Gly-Trp-Val-DMeAsp-MePhe-amide] | 0.62 | 0.34 |  | > 1000 |  |  |  |
| B2 |  |  |  | > 1000 | 3000 | 0.91 | 0.24 |
| B3 |  |  |  | 97 | 280 | 0.068 | 0.22 |
| B4 |  |  |  | 940 | 4700 | 0.058 |  |
| B5 |  |  |  | > 1000 | 3600 | 0.035 | 0.19 |
| B6 |  |  |  | 390 | 5600 | 0.065 | 0.41 |
| D[sY]LGWA[DMeAsp][NMeF]-NH2 [Asp-sTyr-Leu-Gly-Trp-Ala-DMeAsp-MePhe-amide] | 0.53 | 0.22 | > 1000 |  |  |  |  |

From US20170008928A1, “NOVEL PEPTIDES AND PEPTIDE DERIVATIVES AND USES THEREOF” (Novo Nordisk A/S, priority 2015, published 2017)
